Here are results for 41 sequences from the nanobody polyreactivity screen of Harvey et al. (2022).

A short description of the data set: yeast display, Sf9 membrane polyspecificity reagent, FACS + sequencing; frameworks hold sequencing errors. Put shortly: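 Nanobodies from a synthetic yeast display library (Saccharomyces cerevisiae BJ5465), induced 36–48 hours with galactose, were stained 1 hour at 4 °C with 10% biotinylated, detergent-solubilized Sf9 membrane reagent, enriched on streptavidin microbeads, then FACS-sorted. Anti-HA (expression) and streptavidin (reagent binding) fluorescence set low and high (top ~1%) gates. Polyreactivity labels come from the gate of origin. Genes were colony-PCR amplified, MiSeq 2 × 250 sequenced and filtered by CDR length.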
In the case of “QVQLVESGGGLVQAGGSLRLSCAASGSIFNGYVMGWYRQAPGKERELVASINRGGTTNYADSVKGRFTISRDNAKNTVYFQMNSLKPEDTAVYYCAVDDDANSLGGYYVLFDYWGQGTQVTVSS”, the “polyreactivity (PSR sort gate)” value is “low polyreactivity”.

On to “QVQLVESGGGLVQAGGSLRLSCAASGSIFNKYAMGWYRQAPGKEREFVAAITQGGGRTYYADSVKGRFTISRDNAKNTVYLQMNSLKPEDTAVYYCNAAVYSRARGSYRRRYDYWGQGTQVTVSS”, for which the “polyreactivity (PSR sort gate)” value is reported as “high polyreactivity”.

Regarding “QVQLVESGGGLVQAGGSLRLSCAASGSIFNKYAMGWYRQAPGKERELVAAISVSGTRTYYADTVKGRFTISRDNAKNTVYLQMNSLKPEDTAVYYCATKFFRTAYESWGQGTQVTVSS”, the “polyreactivity (PSR sort gate)” value is recorded as “high polyreactivity”.

“QVQLVESGGGLVQAGGSLRLSCAASGSIFNPYTMGWYRQAPGKERELVAAISASGGSTYYADSVKGRFTISRDNAKYTVYLQMNCLKPEDTAVYYCNVYRITRHSYNFGFDYWGQGTQVTVSS”: the “polyreactivity (PSR sort gate)” value is “low polyreactivity”.

“QVQLVESGGGLVQAGGSLRLSCAASGSIFNRNVMGWYRQAPGKERELVAAITWSGASTYYADSVKGRFTISRDNAKNTVYLQMNSLKPEDTAVYYCAARGPSRRRDGSDYWGQGTQVTVSS”: the “polyreactivity (PSR sort gate)” value was “high polyreactivity”.

Turning to “QVQLVESGGGLVQAGGSLRLSCAASGSIFNRYAMGWSRQAPGKARELVPAISRRGAGTYYADSVKGRFTISRDNAKHTVYLQMNSLKPDDTAVYYCAAAGYFPTAGSRRAYYYCGQGTQVTVSS”, the “polyreactivity (PSR sort gate)” value is “high polyreactivity”.

With “QVQLVESGGGLVQAGGSLRLSCAASGSIFNRYAMGWYRQAPGKEREFVARISKRGGGTYYADSVKGRFTISRDNAKNTVYLQMNSLKPEDTAGYYCNAGVPSAMDYWGQGTQVTVSS”, the “polyreactivity (PSR sort gate)” value is “high polyreactivity”.

As to “QVQLVESGGGLVQAGGSLRLSCAASGSIFNRYTMGWYRPAHGKQRELVAAISRGGITYYADSVKGRFTISRDNAMNTVYLQMNSLKPEDSAVYYCAADGFTRWGRYDYWGQGTQVTVSS”, the “polyreactivity (PSR sort gate)” value is given as “high polyreactivity”.

On to “QVQLVESGGGLVQAGGSLRLSCAASGSIFNRYTMGWYRQAPGKEREFVAAIRNSGSRTYYADSVKRRFTISRDNAKNTVYLQMNSLKPEDTAVYYCAADGPLNSSESYYWGQGTQVTVSS”, for which the “polyreactivity (PSR sort gate)” value is listed as “low polyreactivity”.

For “QVQLVESGGGLVQAGGSLRLSCAASGSIFNSNAMGWYRQAPGKERELVAVISWSDGSTRYADSVKGRFTISRDNAKNTVYLQMNSLKPEDTAVYYCNADLVYYYRQEVDYWGQGTEVTVSS”, the “polyreactivity (PSR sort gate)” value is reported as “low polyreactivity”.

For “QVQLVESGGGLVQAGGSLRLSCAASGSIFNSNAMGWYRQAPGTERELDAGISNIGGSTYYADSVKGRFTISRDYAKNTVYLQMNSLKPEDTAVYFCNADRLQPNRYYYWGQGTQVTVSS”, the “polyreactivity (PSR sort gate)” value is given as “high polyreactivity”.

For “QVQLVESGGGLVQAGGSLRLSCAASGSIFNSYAMGWYIQAPGKERELFADITSSGGSTYYADSVKGRFTISRDNAKNTVYLQMNCLKPEDTAVYYCAASSPAFYGLRYNYWGQGTQVTVSS”, the “polyreactivity (PSR sort gate)” value is on record as “low polyreactivity”.

Turning to “QVQLVESGGGLVQAGGSLRLSCAASGSIFNTYAMGWYRQAPGKEREFVASISRSGGSTRYADSVKGRFTISRDNAKNTVYLQMNSLKPEDTAVYYCAARVPRGHVTYDYWGQGTQVTVSS”, the “polyreactivity (PSR sort gate)” value is “high polyreactivity”.

Take “QVQLVESGGGLVQAGGSLRLSCAASGSIFNVYVMGWYRQAPGKERELVASITWTTGSTYADSVKGRFTISRDNAKNTVYLQMNSLKPEDTAVYYCNAEFPEDTSDDYWGQGTQVTVSS”: the “polyreactivity (PSR sort gate)” value is on record as “low polyreactivity”.

Turning to “QVQLVESGGGLVQAGGSLRLSCAASGSIFNWYAMGWYIQAPGKERELVAAISSSGSTNYADSVKGRFTISRDNAKNTVYLQMNSLKPEDTEVYYCNADEYYLNNYNYGYWGQGTQVTVSS”, the “polyreactivity (PSR sort gate)” value is “low polyreactivity”.

In the case of “QVQLVESGGGLVQAGGSLRLSCAASGSIFNWYAMGWYRKAPGKERELVAAIRSGGNTKYADSVKGRFTISRDNAKNTVYLQMTSLKPEDTAVYYCAAGVYHRRLEYYYWGQGSQVTVSS”, the “polyreactivity (PSR sort gate)” value is given as “low polyreactivity”.

Take “QVQLVESGGGLVQAGGSLRLSCAASGSIFNYNAMGWYRQAPGKERELVAAISSGGSTNYADSVKGRFTISRDNAKNTVYLQMNSLKPEDTAVYYCAKRGKQYRKMNYWGQGTQVTVSS”: the “polyreactivity (PSR sort gate)” value was “high polyreactivity”.

Turning to “QVQLVESGGGLVQAGGSLRLSCAASGSIFNYNDMGWYRQAPGKERELVAAIDSSGTSTYYADSVKGRFTISRDNAKNTVYLQMNSLKPEDTAVYYCNADSSLGFGYWGQGTQVTVSS”, the “polyreactivity (PSR sort gate)” value is recorded as “low polyreactivity”.

“QVQLVESGGGLVQAGGSLRLSCAASGSIFNYYAMGWYRQAPGKERELVAAITTSGGRTYYADSVKGRFTISRDNAKNTVYLQMNSLKPEDTAVYYCAARGYGRRAYVYRYDYWGQGTQVTVSS”: the “polyreactivity (PSR sort gate)” value was “high polyreactivity”.

In the case of “QVQLVESGGGLVQAGGSLRLSCAASGSIFNYYDMGWYRQAPGKERELVAAIDLTGGTTYYADSVKGRFTISRDNAKNTVYLQMNSLKPEDTAVYYCAAQYIRSSWWGYDYWGQGTQVTVSS”, the “polyreactivity (PSR sort gate)” value is on record as “low polyreactivity”.

“QVQLVESGGGLVQAGGSLRLSCAASGSIFPAYAMGWYRQAPGKERELVAAITFSGGRTYYADSVKGRFTISRDNAKNTVYLQMNSLKPEDTAVYYCAAYGAPSGTGAKYGYWGQGTQVTVSS”: the “polyreactivity (PSR sort gate)” value is listed as “low polyreactivity”.

On to “QVQLVESGGGLVQAGGSLRLSCAASGSIFPAYAMGWYRQAPGKERELVAAITRGGRTNYADSVKGRFTISRDNAKNSVYLQMNSLKPEDTAVYYCAKAVQGKYGYWGQGTQVTVSS”, for which the “polyreactivity (PSR sort gate)” value is on record as “high polyreactivity”.

On to “QVQLVESGGGLVQAGGSLRLSCAASGSIFPDNAMGWYRQAPGKERELVAAISLSGGRTYYADSVKGRFTISRDNAKNTVYLQMNSLKPEDTAVYYCAAKQRPKSYGPGHYYWGQGTQVTVSS”, for which the “polyreactivity (PSR sort gate)” value is “high polyreactivity”.

As for “QVQLVESGGGLVQAGGSLRLSCAASGSIFPDYAMGWYRQAPGKERELVAAITWRDDSSYYADSVKGRFTISRDNAKNTVYLQMNSLKPEDTAVYYCNASALDPLYAKDDYWGQGTQVTVSS”, the “polyreactivity (PSR sort gate)” value was “low polyreactivity”.

As for “QVQLVESGGGLVQAGGSLRLSCAASGSIFPFYAMGWYRQAPGKERELVAAISYSGGRTYYADSVKGRFTISRDNAKNTVYLQMNSLKPEDTAVYYCAVDSGQKRRDYWGQGTQVTVSS”, the “polyreactivity (PSR sort gate)” value is on record as “high polyreactivity”.

As for “QVQLVESGGGLVQAGGSLRLSCAASGSIFPGYAMGWSRPAPGKERELVAAISRDGSTNYADSVKGRFTISRDNAKITVYLQMNSLKPEDTAVYYCARRNPLGGNEHDYWGQGTQVTVSS”, the “polyreactivity (PSR sort gate)” value is listed as “low polyreactivity”.

In the case of “QVQLVESGGGLVQAGGSLRLSCAASGSIFPGYAMGWYRQAPGKERELVAGITWSDARTYYADSVKGLFTISRDNAKNTVYLQMNSLKPEDTAVYYCAADYYYYERDYWGQGTQVTVSS”, the “polyreactivity (PSR sort gate)” value is given as “low polyreactivity”.

As for “QVQLVESGGGLVQAGGSLRLSCAASGSIFPIYAMGWSRQPPGKESELVAPISRGGSTNYADSVKGRFTISRDNAKNTVYLQMNSLKPEDTAVYYCAAQSRVFSTWGSTGEYYYWGQGTQVTVSS”, the “polyreactivity (PSR sort gate)” value is on record as “low polyreactivity”.

As to “QVQLVESGGGLVQAGGSLRLSCAASGSIFPKYAMGWYRQAPGKERELVAGISRSGGITHYADSVKGRFTISRDNAKNTVYLQMNSLKPEDTAVYYCAALWARALSYYYWGQGTQVTVSS”, the “polyreactivity (PSR sort gate)” value is “high polyreactivity”.

Regarding “QVQLVESGGGLVQAGGSLRLSCAASGSIFPQNAMAWYRQAPGKERELVASISSGGRTNYADSVKGRFTISRDNAKNTVYLQMNSLKPEDTAVYYCNARYRGYYGPKTHGVTYYYWGQGTQVTVSS”, the “polyreactivity (PSR sort gate)” value is given as “low polyreactivity”.

Take “QVQLVESGGGLVQAGGSLRLSCAASGSIFPRYAMGWYRQAPGKERELVAGITSGGITYYADSVKGRFTISRDNAKNTVYLQLNSLKPEDTAVYYCAAVYYLVPGNYWGQGTQVTVSS”: the “polyreactivity (PSR sort gate)” value is given as “high polyreactivity”.

Take “QVQLVESGGGLVQAGGSLRLSCAASGSIFPSYAIGWYRQAPGKERELVATIGRGGTTNYADSVKGRFTISRDNAKNTVYLQMNSLKPEDTSVYYCNAERIWRYKYGYDYWGQGTQVTVSS”: the “polyreactivity (PSR sort gate)” value is “high polyreactivity”.

Regarding “QVQLVESGGGLVQAGGSLRLSCAASGSIFPSYAMGWFRQAPRKERELVAAISRSAGSTYYADSVKGRFTISRDNAKNTVYLQMNSLKPEDTAVYYCAADGYSSRYRFDYWGQGTQVTVSS”, the “polyreactivity (PSR sort gate)” value was “low polyreactivity”.

Take “QVQLVESGGGLVQAGGSLRLSCAASGSIFPSYAMGWYRPAPGTERELVAAISVSGGRTSYADSVKGRFTISRDNAKNTVYLQMNSLKPEDTAVYYCAVRSWSGYGLYNYWAQGTQVTVSS”: the “polyreactivity (PSR sort gate)” value is recorded as “high polyreactivity”.

For the sequence “QVQLVESGGGLVQAGGSLRLSCAASGSIFPSYAMGWYRQAPGKERELVAAISRSAGSTYYADSVKGRFTISRDNAKNTVYLQMNSLKPEDTAVYYCAAEGYSSRYRYDYWGQGTQVTVSS”, the “polyreactivity (PSR sort gate)” value was “low polyreactivity”.

With “QVQLVESGGGLVQAGGSLRLSCAASGSIFPSYARGWYRQAPGKERELVAAINWDGGSTFYADSVKGRFTISRDNAKNTVSLQMNSLKPEDTAVYYCAAPDNYGGVGGITFWRMDYWGQGTQVTVSS”, the “polyreactivity (PSR sort gate)” value is reported as “low polyreactivity”.

Take “QVQLVESGGGLVQAGGSLRLSCAASGSIFPTNAMGWYRQAPGKERELVAAITSTAGSTYYADSVKGRFTISRDNAKNSVYLQMNSLKPEDTAVYYCAATYKVGVKSWYDYWGQGTQVTVSS”: the “polyreactivity (PSR sort gate)” value is reported as “high polyreactivity”.

For “QVQLVESGGGLVQAGGSLRLSCAASGSIFPTYAMGWYRQAPGKERELVAAIRSGSNTYYADSLKGRFTISRDNAKNTDYLQMNCLKPEDTAVYYCNVGPQRKYPGRRTVPFGYWGQGTQVTVSS”, the “polyreactivity (PSR sort gate)” value was “low polyreactivity”.

For “QVQLVESGGGLVQAGGSLRLSCAASGSIFPVYAMGWYRQAPGKERELVAAISSRGGRTYYADSVKGRFTISRDNAKNTVYLQMNSLKPEDTAVYYCAAVPYPSYYDTGYDYWGQGTQVTVSS”, the “polyreactivity (PSR sort gate)” value is “low polyreactivity”.

In the case of “QVQLVESGGGLVQAGGSLRLSCAASGSIFPVYAMGWYRQAPGKERELVATITGSGDSTYADSVKGRFTISRDNAKNTVYLQMNSLKPEDTAVYYCAATTDRAEDDDNIGGYWGQGTQVTVSS”, the “polyreactivity (PSR sort gate)” value is recorded as “low polyreactivity”.

With “QVQLVESGGGLVQAGGSLRLSCAASGSIFPVYAMGWYRQSPGKERELVADITYTTGSTYYADSVKGRFTISRDNAKNTVYLQMNSLKPEDSAVYYCAKDFGFQSDSWGQGTQVTVSS”, the “polyreactivity (PSR sort gate)” value is reported as “low polyreactivity”.
